We go through 2 proteins from FireProtDB (doi:10.1002/pro.370).

“And” between values parts separate entries of the source, which are not always exact repeats. Identical values can stand only once.

The chains are these.
B1: Guanyl-specific ribonuclease Sa wild type, P05798 (protein)
chain: DVSGTVCLSALPPEATDTLNLIASDGPFPYSQDGVVFQNRESVLPTQSYGYYHEYTVITPGARTRGTRRIITGEATQEDYYTGDHYATFSLIDQTC
B2: Variable large protein wild type, O06878 (protein)
chain: MKKISSAILLTTFFVFINCKSQVADKDDPTNKFYQSVIQLGNGFLDVFTSFGGLVAEAFGFKSDPKKSDVKTYFTTVAAKLEKTKTDLNSLPKEKSDISSTTGKPDSTGSVGTAVEGAIKEVSELLDKLVKAVKTAEGASSGTAAIGEVVADADAAKVADKASVKGIAKGIKEIVEAAGGSEKLKAVAAAKGENNKGAGKLFGKAGAAAHGDSEAASKAAGAVSAVSGEQILSAIVTAADAAEQDGKKPEEAKNPIAAAIGDKDGGAEFGQDEMKKDDQIAAAIALRGMAKDGKFAVKDGEKEKAEGAIKGAAESAVRKVLGAITGLIGDAVSSGLRKVGDSVKAASKETPPALNK

The conditions of the first data set: Kitasatospora aureofaciens; pH 3; 25 °C; Urea; CD; Glycine 30 mM; whole UniProt chain shown.
For B1, the denaturant m value is 1.63 kcal/mol/M, the “denaturant midpoint (higher = more stable)” value (“denaturant midpoint” for short) was found to be 1.6 M and the unfolding free energy stood at 2.6 kcal/mol.

The same data set, now with this note: Kitasatospora aureofaciens; pH 7; 25 °C; Urea; CD; MOPS 30 mM; whole UniProt chain shown.
B1: the denaturant m value was 1 kcal/mol/M and 0.94 kcal/mol/M; the “denaturant midpoint” value is 6.4 M and 6.45 M; the unfolding free energy is 6.4 kcal/mol and 6.1 kcal/mol.

The same data set, now with this note: Borreliella burgdorferi; pH 7; 25 °C; Urea; CD; MOPS 30 mM; whole UniProt chain shown.
Consider B2, for which the denaturant m value worked out at 3.86 kcal/mol/M, the “denaturant midpoint” value was 1.19 M and the unfolding free energy worked out at 4.6 kcal/mol.
